Consider one molecule from US20130280162A1 (IFOM FONDAZIONE ISTITUTO FIRC DI ONCOLOGIA MOLECOLARE, published 2013).

One test concerns the target T1, vitronectin (VN) (human, UniProt P04004 20-478).
T1 construct: also called immobilized VN
The experiment in a line: plate assay: uPAR/mFc (5 nM) with increasing uPA on immobilized VN (FIG. 4C). The procedure:
96-well immuno plates (NUNC MaxiSorb, blackwell) were coated with pro-uPA or VN (100 μl, 10 nM) diluted in coating buffer (50 mM sodium carbonate, pH 9.6) at 4° C. ON. Plates were washed with wash buffer (phosphate buffered saline (PBS) containing 0.1% Tween-20 (PBS-T)) and non-specific binding sites blocked (0.15 ml/well) with blocking buffer (PBS containing 2% bovine serum albumin (BSA)) for 1-2 hour at RT. […] The binding was allowed to occur for 1-2 hours at RT and the plates washed three times with wash buffer. Bound uPAR/mFc was detected by sequential incubations with a biotinylated goat anti-mouse Fc antibody (Sigma) and Eu³⁺ labeled streptavidin (Perkin Elmer). Bound Eu³⁺ was quantified by dissociation-enhanced time-resolved fluorescence measurement using an Envision Xcite plate reader (Perkin Elmer) using the DELFIA protocol.
To test the activity of uPAR-lock as an antagonist of the uPAR:VN-interaction the author utilized a binding assay in which uPAR/mFc is allowed to bind immobilized VN in the presence of uPA (FIG. 4C). In this assay uPAR/mFc binds to immobilized VN with high affinity in an uPA-dependent manner. To test the activity of uPAR-lock the author conducted the experiment with a fixed concentration of uPAR/mFc (1 nM) and an excess of uPA (5 nM) mixed with increasing concentrations of uPAR-lock or uPA for comparison (FIG. 4D). […]

Test [1] has as its target T2, urokinase-type plasminogen activator (uPA) (human, UniProt P00749 21-431).
T2 construct: also called pro-uPA; immobilized uPA
As to the kind of experiment: plate assay: increasing uPAR/mFc on immobilized uPA, anti-mouse Fc and Eu-streptavidin (FIG. 4A). The procedure:
Immobilized uPA was incubated with increasing concentrations of uPAR tagged with a mouse Fc (uPAR/mFc). After washing bound uPAR/mFc was quantified using a biotinylated anti-mouse Fc antibody and Europium labeled streptavidin. Note that uPAR/mFc display specific high-affinity binding to immobilized uPA.
96-well immuno plates (NUNC MaxiSorb, blackwell) were coated with pro-uPA or VN (100 μl, 10 nM) diluted in coating buffer (50 mM sodium carbonate, pH 9.6) at 4° C. ON. Plates were washed with wash buffer (phosphate buffered saline (PBS) containing 0.1% Tween-20 (PBS-T)) and non-specific binding sites blocked (0.15 ml/well) with blocking buffer (PBS containing 2% bovine serum albumin (BSA)) for 1-2 hour at RT. After washing with PBS-T, wells were incubated with uPAR/mFc (1 nM) in the presence or absence of the agonists and antagonists to be tested prepared in dilution buffer (PBS containing 1% BSA). The binding was allowed to occur for 1-2 hours at RT and the plates washed three times with wash buffer. Bound uPAR/mFc was detected by sequential incubations with a biotinylated goat anti-mouse Fc antibody (Sigma) and Eu³⁺ labeled streptavidin (Perkin Elmer). Bound Eu³⁺ was quantified by dissociation-enhanced time-resolved fluorescence measurement using an Envision Xcite plate reader (Perkin Elmer) using the DELFIA protocol.

T1 sequence (P04004 20-478): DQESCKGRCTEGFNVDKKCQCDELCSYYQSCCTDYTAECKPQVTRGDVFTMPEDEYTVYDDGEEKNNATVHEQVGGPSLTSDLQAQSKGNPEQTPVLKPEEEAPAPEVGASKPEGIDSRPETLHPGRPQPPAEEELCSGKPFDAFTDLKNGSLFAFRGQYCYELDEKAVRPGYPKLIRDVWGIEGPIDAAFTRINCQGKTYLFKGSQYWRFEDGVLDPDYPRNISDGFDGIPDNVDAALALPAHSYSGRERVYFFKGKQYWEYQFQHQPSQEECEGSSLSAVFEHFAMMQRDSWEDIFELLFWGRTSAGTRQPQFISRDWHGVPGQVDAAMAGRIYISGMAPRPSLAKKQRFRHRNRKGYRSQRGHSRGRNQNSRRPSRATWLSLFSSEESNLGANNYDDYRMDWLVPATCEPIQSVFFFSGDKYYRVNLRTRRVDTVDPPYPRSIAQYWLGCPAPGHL

B1: uPAR/mFc (human uPAR tagged with a murine immunoglobulin heavy chain constant region) (Fc fusion)
chain: LRCMQCKTNGDCRVEECALGQDLCRTTIVRLWEEGEELELVEKSCTHSEKTNRTLSYRTGLKITSLTEVVCGLDLCNQGNSGRAVTYSRSRYLECISCGSSDMSCERGRHQSLQCRSPEEQCLDVVTHWIQEGEEGRPKDDRHLRGCGYLPGCPGSNGFHNNDTFHFLKCCNTTKCNEGPILELENLPQNGRQCYSCKGNSTHGCSSEETFLIDCRGPMNQCLVATGTHEPKNQSYMVRGCATASMCQHAHLGDAFSMNHIDVSCCTKSGCNHPDLDLEVLFQGPLEAGAG
notes: also called uPAR tagged with a mouse Fc; Fc-tagged uPAR; not shown: mouse immunoglobulin IgG1 heavy chain, amino acids 216-441 numbered according to Adetugbo 1978 (clone IRAVp968B035D); th
On to B1, for which the binding result (with vitronectin (VN); in test [1]) was “binds” each time.
